In patent US20180362668:

Assays:
[1] = biological target: Fc protein chain B with D356C + T366S + L368A + Y407V + F405K; test: non-reducing SDS-PAGE of Protein A-purified co-transfection product; chain A:chain B vectors 4:1
[2] = biological target: T1, VhH-Fc fusion protein chain B with D356C + T366S + L368A + Y407V + F405K; test: non-reducing SDS-PAGE densitometry of Protein A-purified co-transfection product; chain A:chain B vectors 4:1
[3] = biological target: Fc protein chain B with D356C + T366S + L368A + Y407V + F405K; test: non-reducing SDS-PAGE of Protein A-purified co-transfection product; chain A:chain B vectors 1:4
[4] = biological target: T1, VhH-Fc fusion protein chain B with …; test: non-reducing SDS-PAGE densitometry of Protein A-purified co-transfection product; chain A:chain B vectors 1:4
[5] = biological target: T2, VhH-Fc fusion protein chain B with T366S + L368A + Y407V + D399S + F405K; test: non-reducing SDS-PAGE densitometry of Protein A-purified co-transfection product; chain A:chain B vectors 4:1
[6] = biological target: T2, VhH-Fc fusion protein chain B with …; test: non-reducing SDS-PAGE densitometry of Protein A-purified co-transfection product; chain A:chain B vectors 1:1
[7] = biological target: T2, VhH-Fc fusion protein chain B with …; test: non-reducing SDS-PAGE densitometry of Protein A-purified co-transfection product; chain A:chain B vectors 1:4
[8] = biological target: T3, VhH-Fc fusion protein chain B with T366S + L368G + Y407A + F405K; test: non-reducing SDS-PAGE densitometry of Protein A-purified co-transfection product; chain A:chain B vectors 4:1
[9] = biological target: T3, VhH-Fc fusion protein chain B with …; test: non-reducing SDS-PAGE densitometry of Protein A-purified co-transfection product; chain A:chain B vectors 1:4

B1: ScFv-Fc fusion protein chain A with Y349C + T366W + K409A (protein)
chain: EVQLLESGGGVVQPGRSLRLSCIASGFTFSSYPMTWVRQAPGKGLEWVASISYDGSYKYKADSMKGRLTISRDNSKNTLYLEMNSLTAEDTAVYYCARTAFFNAYDFWGQGTLVTVSSASTKGPSVGGGGSGGGGSEIVMTQSPATLSVSPGERATLSCRASQSVRSNLAWYQQKPGQAPRLLIYAASTRATGIPARFSGSGSGTEFTLTISSLQSEDFAVYYCQQYNEWFRTSGQGTKVEIKRDKTHTCPPCPAPELLGGPSVFLFPPKPKDTLMISRTPEVTCVVVDVSHENPEVKFNWYVDGVEVHNAKTKPREEQYNSTYRVVSVLTVLHQDWLNGKEYKCKVSNKALPAPIEKTISKAKGQPREPQVCTLPPSRDELTKNQVSLWCLVKGFYPSDIAVEWESNGQPENNYKTTPPVLDSDGSFFLYSALTVDKSRWQQGNVFSCSVMHEALHNHYTQKSLSLSPGK
[1]
  ScFv-Fc/Fc heterodimer (%): 53%
[2]
  ScFv-Fc/VhH-Fc heterodimer (%): 54%
[3]
  ScFv-Fc/Fc heterodimer (%): 66%
[4]
  ScFv-Fc/VhH-Fc heterodimer (%): 47%

B2: ScFv-Fc fusion protein chain A with T366W + K409A + K392D (protein)
chain: EVQLLESGGGVVQPGRSLRLSCIASGFTFSSYPMTWVRQAPGKGLEWVASISYDGSYKYKADSMKGRLTISRDNSKNTLYLEMNSLTAEDTAVYYCARTAFFNAYDFWGQGTLVTVSSASTKGPSVGGGGSGGGGSEIVMTQSPATLSVSPGERATLSCRASQSVRSNLAWYQQKPGQAPRLLIYAASTRATGIPARFSGSGSGTEFTLTISSLQSEDFAVYYCQQYNEWFRTSGQGTKVEIKRDKTHTCPPCPAPELLGGPSVFLFPPKPKDTLMISRTPEVTCVVVDVSHENPEVKFNWYVDGVEVHNAKTKPREEQYNSTYRVVSVLTVLHQDWLNGKEYKCKVSNKALPAPIEKTISKAKGQPREPQVYTLPPSRDELTKNQVSLWCLVKGFYPSDIAVEWESNGQPENNYDTTPPVLDSDGSFFLYSALTVDKSRWQQGNVFSCSVMHEALHNHYTQKSLSLSPGK
[5]
  ScFv-Fc/VhH-Fc heterodimer (%): 61%
[6]
  ScFv-Fc/VhH-Fc heterodimer (%): 80%
[7]
  ScFv-Fc/VhH-Fc heterodimer (%): 73%

B3: ScFv-Fc fusion protein chain A with T366W + K409A (protein)
chain: EVQLLESGGGVVQPGRSLRLSCIASGFTFSSYPMTWVRQAPGKGLEWVASISYDGSYKYKADSMKGRLTISRDNSKNTLYLEMNSLTAEDTAVYYCARTAFFNAYDFWGQGTLVTVSSASTKGPSVGGGGSGGGGSEIVMTQSPATLSVSPGERATLSCRASQSVRSNLAWYQQKPGQAPRLLIYAASTRATGIPARFSGSGSGTEFTLTISSLQSEDFAVYYCQQYNEWFRTSGQGTKVEIKRDKTHTCPPCPAPELLGGPSVFLFPPKPKDTLMISRTPEVTCVVVDVSHENPEVKFNWYVDGVEVHNAKTKPREEQYNSTYRVVSVLTVLHQDWLNGKEYKCKVSNKALPAPIEKTISKAKGQPREPQVYTLPPSRDELTKNQVSLWCLVKGFYPSDIAVEWESNGQPENNYKTTPPVLDSDGSFFLYSALTVDKSRWQQGNVFSCSVMHEALHNHYTQKSLSLSPGK
[8]
  ScFv-Fc/VhH-Fc heterodimer (%): 52%
[9]
  ScFv-Fc/VhH-Fc heterodimer (%): 89%
